Measurements from the RNAGym collection of RNA variant scans (doi:10.1073/pnas.2313332121).

B1: TPR t1 (parent)
chain: GACCAAUCUGCCCUCAGAGCUCGAGAACAUCUUCGGAUGCAGAGGAGGCAGGCUUCGGUGGCGCGAUAGCGCCAACGUCCUCAACCUCCAAUGCAUCCCACCACAUGAUGAUGCCUGAAGAGCCUUGGUUUUUUG

Variants of: B1
Test: polymerase ribozyme fitness, log enrichment relative to wild type (log ratio); higher = more active; in vitro selection for triplet polymerase activity
Procedure, shortened: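 The heterodimeric triplet polymerase ribozyme's subunits were each mutagenized into PCR-built libraries and transcribed. Every library was selected once, in triplicate, by annealing with a biotinylated primer, the partner subunit and triplets, incubating frozen at −7 °C, gel-excising extended constructs, capturing on streptavidin beads and running RT-PCR. Input and output libraries were Illumina-sequenced, with genotypes kept only at ≥10 input reads and ≥1 read per output. Fitness, from inverse-variance-weighted replicate averages, is the base-2 logarithm of genotype enrichment over wild-type enrichment.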

| Variant | polymerase ribozyme fitness (log ratio) |
| --- | --- |
| C4U A121U | 2.23 |
| C4U C8A C12U C79G | -1.25 |
| C4U A16G C49U G69A G71C U78G C82U A84U C115A | -6.51 |
| C4G C12A C15A C94A C99U G110C | -6.59 |
| A5U C64U | -0.49 |
| A5U C56G C114U | -4.21 |
| A5C A37U G127U | -2.11 |
| C4A C114U C124A | -2.3 |
| A5U C34G | -6.92 |
| C4G G45C C70A | -4.27 |
| A5U A18U | -2.62 |
| A5U A18G | -2.05 |
| A5G C13U G36C C62U C85A U112A G117U | -1.72 |
| A5G C79A C115G U125G U131A | -1.22 |
| C4G C86A | -2.95 |
| A5U A43G G44A G52C G63C C124U G128U | -4.22 |
| A5U G10A A37U U55G | -0.809 |
| A5U C28G U96A C114U | -5.96 |
| A5C U9G C15G A43U A95U G110U | -4.99 |
| C4U U54A C72G C82A C114A | -3.49 |
| A5U A18G C20G C82U C94U A111C U112G A121C | -6.26 |

| Variant | polymerase ribozyme fitness (log ratio) |
| --- | --- |
| A5G U33A C124U | -3.02 |
| C4A G117C | -4.54 |
| A5G C8U A95C | -0.636 |
| A5C U7G U54A C72U G110C | -4.62 |
| C4G U9A C62G C89A C115A G117C | -5.76 |
| C4U A41C C56A G63A | -4.61 |
| A5U C73A G122A U126G | -2.29 |
| A5C A37G C88A | -3.94 |
| C4G C124A | 0.669 |
| C4U U9A C82A | 0.0858 |
| C4G A5C G61U A84C U109A U131G | -5.51 |
| A5C A84G | -1.64 |
| C4U U38G | -1.16 |
| C4U C72A A100U | -1.48 |
| C4U G10U G51U C79G | -3.58 |
| C4G C115A | -3.11 |
| C4G U125G | 0.0157 |
| C4A G10A C53G G60U C70U A74U C123A U131C | -1.36 |
| C4G G63U G120U G122U | -1.51 |
| A5U A18U C94G A105G C123G | -6.51 |
| A5U C64U C79U G110A A111G U130C | -0.201 |

| Variant | polymerase ribozyme fitness (log ratio) |
| --- | --- |
| A5C A37C G60C C79U C123A | -0.023 |
| A5C G17A C82A | -5.14 |
| C4G C64U | -2.5 |
| A5G G10A C72A A91U | -1.75 |
| A5G G45A G69U C104A | -1.05 |
| C4U C73U | -0.492 |
| A5G A118U C123G | 2.09 |
| A5C A46U | -1.95 |
| A5C C73G A84U | -2.25 |
| C4U U14A G69A C101U | -5.32 |
| C4A C88U G120U | -2.67 |
| A5G U9G C12A U78C G93A | -0.124 |
| A5C C8U C34A C79U C101G | -3.49 |
| A5U C11A C102A | -4.33 |
| C4A G36A C73A | -3.19 |
| C4A C70G C79A C114U | -5.9 |
| A5C G17C G44A A83U G120A U131A | -4.99 |
| A5U A84G U96C G113U | -4.28 |
| C4A G61C C79G | -3.95 |
| C4U A43U U96A | -3.02 |
| C4U C40U | -1.42 |

| Variant | polymerase ribozyme fitness (log ratio) |
| --- | --- |
| C4G C15A A16U C53A U78C C115U | -3.67 |
| A5G G45A C104A | -2.92 |
| C4U G35C C72U G117C C123U U125A | -6.14 |
| C4U G19A G71A G120C | -3.53 |
| C4A C72U U81A G117U G122A U132A | -6.42 |
| C4U G45U | -1.35 |
| A5U C40U G48A | -2.13 |
| C4G U38A A95U G127C | -0.148 |
| C4U G58C C97G | -4.76 |
| A5G C53A G61A C101U | 0.0588 |
| A5C G61A | -0.269 |
| C4A U7G C31G C70G C86U U87C U112A | -5.92 |
| C4G A26G U78C C99U C114G U132C | -5.4 |
| C4U G57A G61A | -0.861 |
| C4G G10A | -1.4 |
| A5C C11G G44A C56A U112A | -0.571 |
| C4G C89A | -2.63 |
| A5C C13U G44C G48U C115U | -3.4 |
| C4G C97A | -5.92 |
| A5C C76U | -0.646 |
| A5C A46U A83C C86G C114A G117A | -6.85 |
